According to patent publication US20050282739A1:
Square brackets hold non-standard residues; d marks the D form. Ends that are not written are not given here. Nle = CCCC[C@H](N)C(=O)O

Columns and labels:
[1] = biological target: human melanocortin-4 receptor (hMC4-R) (human) (UniProt P32245); assay: 125I-NDP-α-MSH competition, hMC4-R membranes
[2] = biological target: bombesin receptor of rat brain membranes (rat); assay: 125I-Bombesin competition, rat brain membranes
[3] = biological target: melanocortin-1 receptor (MC1-R) of B-16 mouse melanoma cells (mouse) (UniProt Q01727); assay: 125I-NDP-α-MSH competition, B-16 membranes
melanocortin-1 receptor (MC1-R) of B-16 mouse melanoma cells (mouse), sequence (Q01727 whole entry): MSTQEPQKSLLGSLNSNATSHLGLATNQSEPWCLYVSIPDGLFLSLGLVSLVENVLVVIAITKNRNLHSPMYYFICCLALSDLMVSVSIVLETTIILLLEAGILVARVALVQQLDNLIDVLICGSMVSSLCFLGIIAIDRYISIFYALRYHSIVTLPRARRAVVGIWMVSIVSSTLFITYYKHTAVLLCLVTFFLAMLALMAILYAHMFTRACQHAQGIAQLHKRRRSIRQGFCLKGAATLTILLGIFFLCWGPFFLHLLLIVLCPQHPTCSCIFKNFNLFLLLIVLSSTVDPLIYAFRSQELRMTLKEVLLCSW

human melanocortin-4 receptor (hMC4-R) (human), sequence (P32245 whole entry): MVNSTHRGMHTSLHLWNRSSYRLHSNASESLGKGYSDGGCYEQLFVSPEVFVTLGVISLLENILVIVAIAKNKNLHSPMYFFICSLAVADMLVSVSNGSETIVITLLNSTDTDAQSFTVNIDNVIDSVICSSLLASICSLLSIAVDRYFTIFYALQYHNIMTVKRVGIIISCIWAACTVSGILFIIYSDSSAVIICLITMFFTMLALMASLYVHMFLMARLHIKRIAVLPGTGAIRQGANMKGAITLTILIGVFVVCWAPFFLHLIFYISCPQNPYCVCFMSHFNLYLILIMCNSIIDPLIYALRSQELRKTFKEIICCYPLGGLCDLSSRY

% Inhibition [2] | Binder | other results
8% | WAVC-NH2 (also: bridge at 4 via oxorhenium(V) N3S1 chelate, other end not in the chain) [metallopeptide 11-14] | –
2% | [dF]QW[dA]VCHLL-NH2 (bridge (positions not given here) via ReOCl3(PPh3)2; also: oxorhenium(V) N3S1 tetradentate complex at Cys 6) [metallopeptide 10-4] | –
25% | [dF]QWAVCH-NH2 (bridge (positions not given here) via ReOCl3(PPh3)2; also: oxorhenium(V) N3S1 tetradentate complex at Cys 6) [metallopeptide 11-2] | –
6% | [dF]Q[dW]AVCHLL-NH2 (bridge (positions not given here) via ReOCl3(PPh3)2; also: oxorhenium(V) N3S1 tetradentate complex at Cys 6) [metallopeptide 10-5] | –
2% | [dF]QWVCGHLL-NH2 (bridge (positions not given here) via ReOCl3(PPh3)2; also: oxorhenium(V) N3S1 tetradentate complex at Cys 5) [metallopeptide 12-1] | –
6% | AVCHLL-NH2 (also: bridge at 3 via oxorhenium(V) N3S1 chelate, other end not in the chain) [metallopeptide 11-6] | –

More lines, now with the values behind:

Binder | % Inhibition [2] | other results
YVC[Nle]GHFRWDRF-NH2 (bridge (positions not given here); not fully specified (bridges); printed as Tyr-Val-Cys-Nle-Gly-His-Phe-Arg-Trp-Asp-Arg-Phe-NH2.; also: oxorhenium(V) N3S1 complex) [metallopeptide 4-10] | – | % Inhibition at 1 µM [1]: 2%
AVCH-NH2 (also: bridge at 3 via oxorhenium(V) N3S1 chelate, other end not in the chain) [metallopeptide 11-12] | 5% | –
[dF]QWVCVHLL-NH2 (bridge (positions not given here) via ReOCl3(PPh3)2; also: oxorhenium(V) N3S1 tetradentate complex at Cys 5) [metallopeptide 12-3] | 14% | –
[dF]QWAVCHL-NH2 (bridge (positions not given here) via ReOCl3(PPh3)2; also: oxorhenium(V) N3S1 tetradentate complex at Cys 6) [metallopeptide 11-1] | 98% | –
AVCHL-NH2 (also: bridge at 3 via oxorhenium(V) N3S1 chelate, other end not in the chain) [metallopeptide 11-9] | 7% | –
[dF]QWAVC-NH2 (bridge (positions not given here) via ReOCl3(PPh3)2; also: oxorhenium(V) N3S1 tetradentate complex at Cys 6) [metallopeptide 11-3] | -81% | –
Ac-SYS[Nle]CEHFRWGKPV-NH2 (also: oxorhenium(V) N3S1 chelate at Cys5) [metallopeptide 1-10] | – | % Inhibition at 1 µM [1]: 7%
[dF]QWCVHLL-NH2 (bridge (positions not given here) via ReOCl3(PPh3)2; also: oxorhenium(V) N3S1 tetradentate complex at Cys 4) [metallopeptide 12-6] | 10% | –
QWAVCHLL-NH2 (also: bridge at 5 via oxorhenium(V) N3S1 chelate, other end not in the chain) [metallopeptide 11-4] | 25% | –
QWAVC-NH2 (also: bridge at 5 via oxorhenium(V) N3S1 chelate, other end not in the chain) [metallopeptide 11-13] | -50% | –
YV[Nle]GCHFRWDRF-NH2 (also: oxorhenium(V) N3S1 chelate: C5 SG + backbone N of X3, G4, C5, bridge at 5 via Re(V)=O, other end not in the chain) [metallopeptide 4-8] | – | % Inhibition at 1 µM [1]: -1%
WAVCHL-NH2 (also: bridge at 4 via oxorhenium(V) N3S1 chelate, other end not in the chain) [metallopeptide 11-8] | 13% | –
YV[Nle]GHFCRWDRF-NH2 (also: oxorhenium(V) N3S1 chelate: C7 SG + backbone N of H5, F6, C7, bridge at 7 via Re(V)=O, other end not in the chain) [metallopeptide 4-6] | – | % Inhibition at 1 µM [3]: -8%
Ac-SYS[Nle]ECHFRWGKPV-NH2 (also: oxorhenium(V) N3S1 chelate at Cys6) [metallopeptide 1-9] | – | % Inhibition at 1 µM [1]: 3%
[dF]QWVCHLL-NH2 (bridge (positions not given here) via ReOCl3(PPh3)2; also: oxorhenium(V) N3S1 tetradentate complex at Cys 5) [metallopeptide 12-4] | 5% | –
QWAVCHL-NH2 (also: bridge at 5 via oxorhenium(V) N3S1 chelate, other end not in the chain) [metallopeptide 11-7] | 5% | –
WAVCH-NH2 (also: bridge at 4 via oxorhenium(V) N3S1 chelate, other end not in the chain) [metallopeptide 11-11] | -1% | –
WAVCHLL-NH2 (also: bridge at 4 via oxorhenium(V) N3S1 chelate, other end not in the chain) [metallopeptide 11-5] | 18% | –
[dF]QWACVHLL-NH2 (bridge (positions not given here) via ReOCl3(PPh3)2; also: oxorhenium(V) N3S1 tetradentate complex at Cys 5) [metallopeptide 12-2] | 3% | –
[dF]QWA[dV]CHLL-NH2 (bridge (positions not given here) via ReOCl3(PPh3)2; also: oxorhenium(V) N3S1 tetradentate complex at Cys 6) [metallopeptide 10-3] | 7% | –
